Here are results for 34 molecules from PMC9352680, “A comprehensive thermodynamic model for RNA binding by the Saccharomyces cerevisiae Pumilio protein PUF4”.

The data set has as its target T1, PUF4 RNA-binding domain (Saccharomyces cerevisiae, UniProt P25339 537-888).
T1 sequence: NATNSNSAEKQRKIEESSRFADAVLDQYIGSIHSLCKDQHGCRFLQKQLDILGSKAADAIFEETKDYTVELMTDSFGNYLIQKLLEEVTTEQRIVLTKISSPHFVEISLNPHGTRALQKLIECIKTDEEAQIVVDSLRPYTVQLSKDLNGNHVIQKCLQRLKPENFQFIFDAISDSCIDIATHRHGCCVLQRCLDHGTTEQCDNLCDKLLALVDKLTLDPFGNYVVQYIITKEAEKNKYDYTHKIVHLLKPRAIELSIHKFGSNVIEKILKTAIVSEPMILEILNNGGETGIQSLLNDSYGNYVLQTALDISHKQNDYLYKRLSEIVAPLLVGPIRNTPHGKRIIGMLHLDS
As to the kind of experiment: Mg; RNA-MaP; 20 mM Na-HEPES pH 7.4, 30 mM KOAc, 0.75 mM MgCl2, 0.1% Tween-20, 5% glycerol, 0.1 mg/mL BSA, 2 mM DTT; 25 C; 0.0125-409.6 nM protein. The settings on record: tags: N-His6-TEV cleaved; C-SNAP kept, Cy3B-labelled; label: tethered on chip by stalled RNA polymerase.

Molecule UCUCUUUGUCUUACUAUCUCUU (ssRNA) [Ib_S1_P5E.1_K5.1_C5.1_H5.1_[A4C]_A5.1_F5.1_[T8C]_T5.1] returned a Kd of 0.0867 µM.

B1: Id_ii_S2_P3E.3_K3.2_C3.2_[C-2G]_H3.2_A3.1_F3.1_T3.2_[A10C] (ssRNA)
RNA: UUUGAUUAAUAUGAUAUCGUUCUUUCUGUUAUAUAUAUCUUCUUUCUCGAUAUCAUAUUAAUCUUU
With B1, binding was characterised by a dissociation constant (Kd) of 0.0151 µM.

B2: Id_ii_S2_P3E.3_K3.2_C3.2_[C-2T]_[T-1A]_H3.2_A3.1_F3.1_T3.2_[T9A]_[A10C] (ssRNA)
RNA: UUUGAUUAAUAUGAUAUCGUUCUUUCUUAUAUAUAUAACUUCUUUCUCGAUAUCAUAUUAAUCUUU
As for B2, the Kd amounted to 0.203 µM.

B3: Id_ii_S2_P3E.3_K3.2_C3.2_[C-2T]_[T-1C]_H3.2_A3.1_F3.1_T3.2_[T9A]_[A10T] (ssRNA)
RNA: UUUGAUUAAUAUGAUAUCGUUCUUUCUUCUAUAUAUAAUUUCUUUCUCGAUAUCAUAUUAAUCUUU
With B3, the affinity, expressed as Kd, was 0.147 µM. This Kd and that of the molecule before are within 1.5-fold of each other.

B4: Id_ii_S2_P3E.3_K3.2_C3.2_[C-2T]_[T-1A]_H3.2_A3.1_F3.1_T3.2_[T9C]_[A10C] (ssRNA)
RNA: UUUGAUUAAUAUGAUAUCGUUCUUUCUUAUAUAUAUACCUUCUUUCUCGAUAUCAUAUUAAUCUUU
B4 registered a Kd of 0.0638 µM.

B5: Id_ii_S2_P3E.3_K3.2_C3.2_[C-2T]_[T-1G]_H3.2_A3.1_F3.1_T3.2_[T9A]_[A10T] (ssRNA)
RNA: UUUGAUUAAUAUGAUAUCGUUCUUUCUUGUAUAUAUAAUUUCUUUCUCGAUAUCAUAUUAAUCUUU
As for B5, binding was characterised by a dissociation constant (Kd) of 0.00167 µM.

B6: Id_ii_S2_P3E.3_K3.2_C3.2_[C-2T]_[T-1A]_H3.2_A3.1_F3.1_T3.2_[A10C] (ssRNA)
RNA: UUUGAUUAAUAUGAUAUCGUUCUUUCUUAUAUAUAUAUCUUCUUUCUCGAUAUCAUAUUAAUCUUU
In the case of B6, the affinity, expressed as Kd, was 0.0931 µM.

B7: Id_ii_S2_P3E.3_K3.2_C3.2_[C-2T]_[T-1G]_H3.2_A3.1_F3.1_T3.2_[A10G] (ssRNA)
RNA: UUUGAUUAAUAUGAUAUCGUUCUUUCUUGUAUAUAUAUGUUCUUUCUCGAUAUCAUAUUAAUCUUU
In turn, B7 gave a Kd of 0.00152 µM.

B8: Id_ii_S2_P3E.3_K3.2_C3.2_[C-2T]_[T-1C]_H3.2_A3.1_F3.1_T3.2_[T9G]_[A10T] (ssRNA)
RNA: UUUGAUUAAUAUGAUAUCGUUCUUUCUUCUAUAUAUAGUUUCUUUCUCGAUAUCAUAUUAAUCUUU
In turn, B8 had a Kd of 1.03 µM.

B9: Id_ii_S2_P3E.3_K3.2_C3.2_[C-2T]_[T-1A]_H3.2_A3.1_F3.1_T3.2_[T9A]_[A10T] (ssRNA)
RNA: UUUGAUUAAUAUGAUAUCGUUCUUUCUUAUAUAUAUAAUUUCUUUCUCGAUAUCAUAUUAAUCUUU
B9 returned a Kd of 0.247 µM.

B10: Id_ii_S2_P3E.3_K3.2_C3.2_[C-2T]_[T-1A]_H3.2_A3.1_F3.1_T3.2_[T9C]_[A10T] (ssRNA)
RNA: UUUGAUUAAUAUGAUAUCGUUCUUUCUUAUAUAUAUACUUUCUUUCUCGAUAUCAUAUUAAUCUUU
For B10, the Kd was 0.0456 µM.

B11: Id_ii_S2_P3E.3_K3.2_C3.2_[C-2T]_[T-1C]_H3.2_A3.1_F3.1_T3.2_[T9C] (ssRNA)
RNA: UUUGAUUAAUAUGAUAUCGUUCUUUCUUCUAUAUAUACAUUCUUUCUCGAUAUCAUAUUAAUCUUU
In turn, B11 displayed a Kd of 0.175 µM.

B12: Id_ii_S2_P3E.3_K3.2_C3.2_[C-2T]_[T-1G]_H3.2_A3.1_F3.1_T3.2_[T9A] (ssRNA)
RNA: UUUGAUUAAUAUGAUAUCGUUCUUUCUUGUAUAUAUAAAUUCUUUCUCGAUAUCAUAUUAAUCUUU
In the case of B12, the Kd came out at 0.00225 µM.

B13: Id_ii_S2_P3E.3_K3.2_C3.2_[C-2T]_[T-1C]_H3.2_A3.1_F3.1_T3.2_[T9C]_[A10C] (ssRNA)
RNA: UUUGAUUAAUAUGAUAUCGUUCUUUCUUCUAUAUAUACCUUCUUUCUCGAUAUCAUAUUAAUCUUU
Take B13: the Kd was 0.228 µM.

B14: Id_ii_S2_P3E.3_K3.2_C3.2_[C-2T]_[T-1G]_H3.2_A3.1_F3.1_T3.2_[T9G]_[A10T] (ssRNA)
RNA: UUUGAUUAAUAUGAUAUCGUUCUUUCUUGUAUAUAUAGUUUCUUUCUCGAUAUCAUAUUAAUCUUU
B14 yielded a Kd of 0.00383 µM.

B15: Id_ii_S2_P3E.3_K3.2_C3.2_[C-2T]_H3.2_A3.1_F3.1_T3.2_[T9A]_[A10T] (ssRNA)
RNA: UUUGAUUAAUAUGAUAUCGUUCUUUCUUUUAUAUAUAAUUUCUUUCUCGAUAUCAUAUUAAUCUUU
Regarding B15, binding was put at a Kd of 0.439 µM.

B16: Id_ii_S2_P3E.3_K3.2_C3.2_[C-2T]_[T-1C]_H3.2_A3.1_F3.1_T3.2_[A10T] (ssRNA)
RNA: UUUGAUUAAUAUGAUAUCGUUCUUUCUUCUAUAUAUAUUUUCUUUCUCGAUAUCAUAUUAAUCUUU
For B16, the Kd is 0.0681 µM.

B17: Id_ii_S2_P3E.3_K3.2_C3.2_[C-2T]_[T-1G]_H3.2_A3.1_F3.1_T3.2_[A10C] (ssRNA)
RNA: UUUGAUUAAUAUGAUAUCGUUCUUUCUUGUAUAUAUAUCUUCUUUCUCGAUAUCAUAUUAAUCUUU
Regarding B17, the dissociation constant (Kd) was determined as 0.00172 µM. Compared with the last molecule, the Kd is about 40-fold lower.

B18: Id_ii_S2_P3E.3_K3.2_C3.2_[C-2T]_H3.2_A3.1_F3.1_T3.2_[T9C]_[A10C] (ssRNA)
RNA: UUUGAUUAAUAUGAUAUCGUUCUUUCUUUUAUAUAUACCUUCUUUCUCGAUAUCAUAUUAAUCUUU
For the molecule B18, binding was characterised by a dissociation constant (Kd) of 0.191 µM.

B19: Id_ii_S2_P3E.3_K3.2_C3.2_[C-2T]_H3.2_A3.1_F3.1_T3.2_[T9G]_[A10T] (ssRNA)
RNA: UUUGAUUAAUAUGAUAUCGUUCUUUCUUUUAUAUAUAGUUUCUUUCUCGAUAUCAUAUUAAUCUUU
As for B19, the Kd was found to be 0.253 µM.

B20: Id_ii_S2_P3E.3_K3.2_C3.2_[C-2T]_H3.2_A3.1_F3.1_T3.2_[T9A]_[A10C] (ssRNA)
RNA: UUUGAUUAAUAUGAUAUCGUUCUUUCUUUUAUAUAUAACUUCUUUCUCGAUAUCAUAUUAAUCUUU
In turn, B20 had a Kd of 0.262 µM.

B21: Id_ii_S2_P3E.3_K3.2_C3.2_[C-2G]_H3.2_A3.1_F3.1_T3.2_[A10T] (ssRNA)
RNA: UUUGAUUAAUAUGAUAUCGUUCUUUCUGUUAUAUAUAUUUUCUUUCUCGAUAUCAUAUUAAUCUUU
The molecule B21 returned an equilibrium dissociation constant (Kd) of 0.00918 µM.

B22: Id_ii_S2_P3E.3_K3.2_C3.2_[C-2T]_H3.2_A3.1_F3.1_T3.2_[T9G]_[A10C] (ssRNA)
RNA: UUUGAUUAAUAUGAUAUCGUUCUUUCUUUUAUAUAUAGCUUCUUUCUCGAUAUCAUAUUAAUCUUU
As to B22, binding was put at a Kd of 0.277 µM.

B23: Id_ii_S2_P3E.3_K3.2_C3.2_[C-2T]_[T-1G]_H3.2_A3.1_F3.1_T3.2_[A10T] (ssRNA)
RNA: UUUGAUUAAUAUGAUAUCGUUCUUUCUUGUAUAUAUAUUUUCUUUCUCGAUAUCAUAUUAAUCUUU
For the molecule B23, the Kd is 0.00125 µM.

B24: Id_ii_S2_P3E.3_K3.2_C3.2_[C-2T]_[T-1A]_H3.2_A3.1_F3.1_T3.2_[A10T] (ssRNA)
RNA: UUUGAUUAAUAUGAUAUCGUUCUUUCUUAUAUAUAUAUUUUCUUUCUCGAUAUCAUAUUAAUCUUU
B24 displayed a Kd of 0.0834 µM.

B25: Id_ii_S2_P3E.3_K3.2_C3.2_[C-2T]_[T-1C]_H3.2_A3.1_F3.1_T3.2_[T9C]_[A10G] (ssRNA)
RNA: UUUGAUUAAUAUGAUAUCGUUCUUUCUUCUAUAUAUACGUUCUUUCUCGAUAUCAUAUUAAUCUUU
B25: the Kd was determined as 0.536 µM.

B26: Id_ii_S2_P3E.3_K3.2_C3.2_[C-2T]_[T-1C]_H3.2_A3.1_F3.1_T3.2_[T9C]_[A10T] (ssRNA)
RNA: UUUGAUUAAUAUGAUAUCGUUCUUUCUUCUAUAUAUACUUUCUUUCUCGAUAUCAUAUUAAUCUUU
Regarding B26, the Kd came out at 0.088 µM.

B27: Id_ii_S2_P3E.3_K3.2_C3.2_[C-2T]_[T-1A]_H3.2_A3.1_F3.1_T3.2_[A10G] (ssRNA)
RNA: UUUGAUUAAUAUGAUAUCGUUCUUUCUUAUAUAUAUAUGUUCUUUCUCGAUAUCAUAUUAAUCUUU
Take B27: the Kd worked out at 0.554 µM.

B28: Id_ii_S2_P3E.3_K3.2_C3.2_[C-2T]_[T-1G]_H3.2_A3.1_F3.1_T3.2_[T9G]_[A10C] (ssRNA)
RNA: UUUGAUUAAUAUGAUAUCGUUCUUUCUUGUAUAUAUAGCUUCUUUCUCGAUAUCAUAUUAAUCUUU
The molecule B28 displayed a Kd of 0.00263 µM.

B29: Id_ii_S2_P3E.3_K3.2_C3.2_[C-2T]_[T-1C]_H3.2_A3.1_F3.1_T3.2_[T9G]_[A10C] (ssRNA)
RNA: UUUGAUUAAUAUGAUAUCGUUCUUUCUUCUAUAUAUAGCUUCUUUCUCGAUAUCAUAUUAAUCUUU
B29 had a Kd of 0.393 µM.

B30: Id_ii_S2_P3E.3_K3.2_C3.2_[C-2T]_[T-1A]_H3.2_A3.1_F3.1_T3.2_[T9A] (ssRNA)
RNA: UUUGAUUAAUAUGAUAUCGUUCUUUCUUAUAUAUAUAAAUUCUUUCUCGAUAUCAUAUUAAUCUUU
B30: the affinity, expressed as Kd, was 0.498 µM. This Kd and that of the molecule before are within 1.5-fold of each other.

UCUCUUUGUUUUACUAUCUCUU (ssRNA) [Ib_S1_P5E.1_K5.1_C5.1_H5.1_[A4T]_A5.1_F5.1_[T8C]_T5.1] had a Kd of 0.0596 µM.

Molecule UCUCUUUGUAUUAUUGUCUCUU (ssRNA) [Ia_S1_P5E.1_K5.1_C5.1_H5.1_A5.1_F5.1_[A10G]_T5.1] showed a Kd of 0.0148 µM.

Molecule UCUCUUUGUGUUAAUAUCUCUU (ssRNA) [Ib_S1_P5E.1_K5.1_C5.1_H5.1_[A4G]_A5.1_F5.1_[T8A]_T5.1] showed a Kd of 0.134 µM. Against the preceding molecule, the Kd is about 9.1-fold higher.

A word on the Kd: it is the concentration at which binding is half-saturated. A high value points to a looser complex.
